What was measured:
[1] = target: 28mer peptide of the CXCR5 antigen; assay: Antigen ELISA, relative EC50 against the reference; 100 mg/mL formulation, 1 month at +25°C/60% RH
[2] = target: 28mer peptide of the CXCR5 antigen; assay: Antigen ELISA, relative EC50 against the reference; 100 mg/mL formulation, 6 months at -20°C
[3] = target: 28mer peptide of the CXCR5 antigen; assay: Antigen-ELISA on the 28mer CXCR5 peptide, relative EC50 against the standard; DS in PBS, 1 month at 25°C
[4] = target: 28mer peptide of the CXCR5 antigen; assay: Antigen ELISA, relative EC50 against the reference; 100 mg/mL formulation, 9 months at +5°C
[5] = target: 28mer peptide of the CXCR5 antigen; assay: Antigen ELISA, relative EC50 against the reference; 100 mg/mL formulation, 6 months at +5°C
[6] = target: 28mer peptide of the CXCR5 antigen; assay: Antigen-ELISA on the 28mer CXCR5 peptide, relative EC50 against the standard; DS in PBS, 3 months at -20°C
[7] = target: 28mer peptide of the CXCR5 antigen; assay: Antigen ELISA, relative EC50 against the reference; 100 mg/mL formulation, 1 month at -20°C
[8] = target: 28mer peptide of the CXCR5 antigen; assay: Antigen-ELISA on the 28mer CXCR5 peptide, relative EC50 against the standard; DS in PBS, 1 month at 5°C
[9] = target: 28mer peptide of the CXCR5 antigen; assay: Antigen ELISA, relative EC50 against the reference; 100 mg/mL formulation, +5°C study, initial
[10] = target: 28mer peptide of the CXCR5 antigen; assay: Antigen ELISA, relative EC50 against the reference; 100 mg/mL formulation, 18 months at +5°C
[11] = target: 28mer peptide of the CXCR5 antigen; assay: Antigen-ELISA on the 28mer CXCR5 peptide, relative EC50 against the standard; DS in PBS, 1 month at -20°C
[12] = target: 28mer peptide of the CXCR5 antigen; assay: Antigen ELISA, relative EC50 against the reference; 100 mg/mL formulation, +25°C/60% RH study, initial
[13] = target: 28mer peptide of the CXCR5 antigen; assay: Antigen ELISA, relative EC50 against the reference; 100 mg/mL formulation, 12 months at -20°C
[14] = target: 28mer peptide of the CXCR5 antigen; assay: Antigen-ELISA on the 28mer CXCR5 peptide, relative EC50 against the current antibody standard; DS in PBS, release
[15] = target: 28mer peptide of the CXCR5 antigen; assay: Antigen-ELISA on the 28mer CXCR5 peptide, relative EC50 against the standard; DS in PBS, 3 months at 5°C
[16] = target: 28mer peptide of the CXCR5 antigen; assay: Antigen ELISA, relative EC50 against the reference; 100 mg/mL formulation, 3 months at -20°C
[17] = target: 28mer peptide of the CXCR5 antigen; assay: Antigen ELISA, relative EC50 against the reference; 100 mg/mL formulation, 6 months at +25°C/60% RH
[18] = target: 28mer peptide of the CXCR5 antigen; assay: Antigen ELISA, relative EC50 against the reference; 100 mg/mL formulation, 3 months at +5°C
[19] = target: 28mer peptide of the CXCR5 antigen; assay: Antigen ELISA, relative EC50 against the reference; 100 mg/mL formulation, 18 months at -20°C
[20] = target: 28mer peptide of the CXCR5 antigen; assay: Antigen ELISA, relative EC50 against the reference; 100 mg/mL formulation, 9 months at -20°C
[21] = target: 28mer peptide of the CXCR5 antigen; assay: Antigen ELISA, relative EC50 against the reference; 100 mg/mL formulation, 3 months at +25°C/60% RH
[22] = target: 28mer peptide of the CXCR5 antigen; assay: Antigen-ELISA on the 28mer CXCR5 peptide, relative EC50 against the standard; DS in PBS, 3 months at 25°C
[23] = target: 28mer peptide of the CXCR5 antigen; assay: Antigen ELISA, relative EC50 against the reference; 100 mg/mL formulation, 15 months at +5°C
[24] = target: 28mer peptide of the CXCR5 antigen; assay: Antigen ELISA, relative EC50 against the reference; 100 mg/mL formulation, 12 months at +5°C
[25] = target: 28mer peptide of the CXCR5 antigen; assay: Antigen ELISA, relative EC50 against the reference; 100 mg/mL formulation, 1 month at +5°C
[26] = target: 28mer peptide of the CXCR5 antigen; assay: Antigen ELISA, relative EC50 against the reference; 100 mg/mL formulation, -20°C study, initial

B1: Lead CXCR5 Antibody (humanized IgG4 anti-CXCR5 antibody comprising a heavy chain of SEQ ID NO: 25 and a light chain of SEQ ID NO: 26) (antibody, V domains shown)
VH: QVQLKESGPGLVAPSESLSITCTVSGFSLIDYGVNWIRQPPGKGLEWLGVIWGDGTTYYNPSLKSRLSISKDNSKSQVFLKVTSLTTDDTAMYYCARIVYWGQGTLVTVSA
VL: DIVMTQAAPSVAVTPGASVSISCRSSKSLLHSSGKTYLYWFLQRPGQSPQLLIYRLSSLASGVPDRFSGSGSGTAFTLRISRVEAEDVGVYYCMQHLEYPYTFGGGTKLEIKR
A Potency (Antigen ELISA), EC50 value in comparison to reference [1] of 121%, a Potency (Antigen ELISA), EC50 value in comparison to reference [2] of 96% and an Ag-ELISA EC50 % (relative to standard) [3] of 106% were found for B1 in this work. It also gave a Potency (Antigen ELISA), EC50 value in comparison to reference [4] of 92%, a Potency (Antigen ELISA), EC50 value in comparison to reference [5] of 97% and an Ag-ELISA EC50 % (relative to standard) [6] of 93%. For the same binder, the Potency (Antigen ELISA), EC50 value in comparison to reference [7] was 107%, the Ag-ELISA EC50 % (relative to standard) [8] was 83% and the Potency (Antigen ELISA), EC50 value in comparison to reference [9] was 75%. It also gave a Potency (Antigen ELISA), EC50 value in comparison to reference [10] of 119%, an Ag-ELISA EC50 % (relative to standard) [11] of 132% and a Potency (Antigen ELISA), EC50 value in comparison to reference [12] of 75%. For the same binder, the Potency (Antigen ELISA), EC50 value in comparison to reference [13] was 96%, the Ag-ELISA EC50 % (relative to standard) [14] was 100% and the Ag-ELISA EC50 % (relative to standard) [15] was 112%. The Potency (Antigen ELISA), EC50 value in comparison to reference [16] was 84%, the Potency (Antigen ELISA), EC50 value in comparison to reference [17] was 104% and the Potency (Antigen ELISA), EC50 value in comparison to reference [18] was 95%. For the same binder, the Potency (Antigen ELISA), EC50 value in comparison to reference [19] was 127%, the Potency (Antigen ELISA), EC50 value in comparison to reference [20] was 101% and the Potency (Antigen ELISA), EC50 value in comparison to reference [21] was 96%. It also gave an Ag-ELISA EC50 % (relative to standard) [22] of 108%, a Potency (Antigen ELISA), EC50 value in comparison to reference [23] of 114% and a Potency (Antigen ELISA), EC50 value in comparison to reference [24] of 93%. It also gave a Potency (Antigen ELISA), EC50 value in comparison to reference [25] of 105% and a Potency (Antigen ELISA), EC50 value in comparison to reference [26] of 75%.
